The results in this text go back to US20150104808A1 (Janssen / Centocor, published 2015).

Test [1] has as its target Recombinant human c-Met Fc chimera (human) (UniProt P08581). The test can be described thus: HGF competition on coated c-Met Fc chimera, competitor biotinylated HGF.
For test [2], the target named is T1, EGFR (epidermal growth factor receptor) on cells (human, UniProt P00533 25-1210). The test can be described thus: cell-based or functional assay.
For test [3], the target named is c-Met (hepatocyte growth factor receptor) on cells (human, UniProt P08581 25-1390). The test is described as follows: cell-based or functional assay.
In test [4] the target is T1, EGFR (epidermal growth factor receptor) …. The test can be described thus: A431 cell binding, anti-His-Alexa488 fluorescence. Here is the method: A431 cells were plated at 5,000/well in opaque black 96-well plates and allowed to attach overnight at 37° C., in a humidified 5% CO₂ atmosphere. […] Supernatant was removed and cells were washed 3 times with 150 μL/well of FACS stain buffer. Cells were incubated with 50 μL/well of anti-penta His-Alexa488 antibody conjugate (Qiagen) diluted 1:100 in FACS stain buffer for 20 minutes at room temperature. Cells were washed 3 times with 150 μL/well of FACS stain buffer, after which wells were filled with 100 μL of FACS stain buffer and read for fluorescence at 488 nm using an Acumen eX3 reader. Data were plotted as raw fluorescence signal against the logarithm of the FN3 domain molar concentration and fitted to a sigmoidal dose-response curve with variable slope using GraphPad Prism 4 (GraphPad Software) to calculate EC₅₀ values.

By IC50 is commonly meant the midpoint of a concentration-inhibition curve. A word on the EC50: it is the midpoint of the concentration-response curve.

Some results are limits rather than exact numbers.

B1: P114AR7P93-G8 (designed binder, not shown: small tags and cut ends)
chain: LPAPKNLVVSRVTEDSARLSWTAPDAAFDSFWIRYFEFLGSGEAIVLTVPGSERSYDLTDLKPGTEYGVTINGVKGGRVSTPLSAIFTT
Regarding B1, the IC50 in test [1] was 1 nM.

B2: ECB147v3-PEG24 (designed binder)
chain: LPAPKNLVVSEVTEDSARLSWDDPWAFYESFLIQYQESEKVGEAIVLTVPGSERSYDLTGLCPGTEYTVSIYGVHNVYKDTNMRGLPLSAIFTTAPCPAPAPAPLPAPKNLVVSRVTEDSARLSWTAPDAAFDSFWIRYFEFLGSGEAIVLTVPGSERSYDLTGLCPGTEYVVNIMSVKGGSISPPLSAIFTTAPCPAPAPAPLAEAKVLANRELDKYGVSDYYKNLINNAKTVEGVKALLDEILAALP
modifications: PEG24-maleimide on the engineered cysteines
As for B2, the “IC50, inhibition of EGF-stimulated EGFR phosphorylation (Tyr1173) in NCI-H292” value (“IC50, inhibition … (Tyr1173) in NCI-H292” for short) in test [2] stood at 1.6 nM. Besides, the “IC50, inhibition of HGF-stimulated c-Met phosphorylation (Tyr1349) in NCI-H292” value (shortened to “IC50, inhibition … (Tyr1349) in NCI-H292”) in test [3] was 0.5 nM.

B3: ECB147v7-PEG24 (designed binder)
chain: LPAPKNLVVSEVTEDSARLSWDDPWAFYESFLIQYQESEKVGEAIVLTVPGSERSYDLTGLKPGTEYTVSIYGVHNVYKDTNMRGLPLSAIFTTAPCPAPAPAPLPAPKNLVVSRVTEDSARLSWTAPDAAFDSFWIRYFEFLGSGEAIVLTVPGSERSYDLTGLKPGTEYVVNIMSVKGGSISPPLSAIFTTAPCPAPAPAPLAEAKVLANRELDKYGVSDYYKNLINNAKTVEGVKALLDEILAALP
modifications: PEG24-maleimide on the engineered cysteines
Take B3: the “IC50, inhibition … (Tyr1173) in NCI-H292” value in test [2] was 1.4 nM. In addition, the “IC50, inhibition … (Tyr1349) in NCI-H292” value in test [3] was 0.5 nM.

B4: ECB147v5-PEG24 (designed binder)
chain: LPAPKNLVVSEVTEDSARLSWDDPWAFYESFLIQYQESEKVGEAIVLTVPGSERSYDLTGLCPGTEYTVSIYGVHNVYKDTNMRGLPLSAIFTTAPAPAPAPAPLPAPKNLVVSRVTEDSARLSWTAPDAAFDSFWIRYFEFLGSGEAIVLTVPGSERSYDLTGLCPGTEYVVNIMSVKGGSISPPLSAIFTTAPAPAPAPAPLAEAKVLANRELDKYGVSDYYKNLINNAKTVEGVKALLDEILAALP
modifications: PEG24-maleimide on the engineered cysteines
Consider B4, for which the “IC50, inhibition … (Tyr1173) in NCI-H292” value in test [2] came to 0.9 nM. Further, in test [3], the “IC50, inhibition … (Tyr1349) in NCI-H292” value amounted to 0.4 nM.

B5: ECB147v6-PEG24 (designed binder)
chain: LPAPKNLVVSEVTEDSARLSWDDPWAFYESFLIQYQESEKVGEAIVLTVPGSERSYDLTGLCPGTEYTVSIYGVHNVYKDTNMRGLPLSAIFTTAPAPAPAPAPLPAPKNLVVSRVTEDSARLSWTAPDAAFDSFWIRYFEFLGSGEAIVLTVPGSERSYDLTGLKPGTEYVVNIMSVKGGSISPPLSAIFTTAPAPAPAPAPLAEAKVLANRELDKYGVSDYYKNLINNAKTVEGVKALLDEILAALP
modifications: PEG24-maleimide on the engineered cysteine
As for B5, in test [2], the “IC50, inhibition … (Tyr1173) in NCI-H292” value was determined as 1.4 nM. The “IC50, inhibition … (Tyr1349) in NCI-H292” value in test [3] was 0.4 nM.

B6: P114AR5P74-A5 (designed binder, not shown: small tags and cut ends)
chain: LPAPKNLVVSRVTEDSARLSWTAPDAAFDSFWIRYDEVVVGGEAIVLTVPGSERSYDLTGLKPGTEYYVNILGVKGGSISVPLSAIFTT
Regarding B6, in test [1], the IC50 is 5.2 nM.

B7: P114AR7P94-E5 (designed binder, not shown: small tags and cut ends)
chain: LPAPKNLVVSRVTEDSARLSWTAPDAAFDSFWIRYFEFLGSGEAIVLTVPGSERSYDLTGLKPGTEYAVNIMGVKGGRVSVPLSAIFTT
Turning to B7, in test [1], the IC50 stood at 0.7 nM.

B8: P114AR7P94-A3 (designed binder, not shown: small tags and cut ends)
chain: LPAPKNLVVSRVTEDSARLSWTAPDAAFDSFWIRYFEFLGSGEAIVLTVPGSERSYDLTGLKPGTEYVVNIMGVKGGKISPPLSAIFTT
Consider B8, for which the IC50 in test [1] is 0.2 nM.

B9: P114AR5P75-E9 (designed binder, not shown: small tags and cut ends)
chain: LPAPKNLVVSRVTEDSARLSWTAPDAAFDSFFIRYDEFLRSGEAIVLTVPGSERSYDLTGLKPGTEYWVTILGVKGGLVSTPLSAIFTT
On to B9, for which the IC50 in test [1] came to 51.9 nM.

B10: P114AR7P93-H9 (designed binder, not shown: small tags and cut ends)
chain: LPAPKNLVVSRVTEDSARLSWTAPDAAFDSFWIRYFEFLGSGEAIVLTVPGSERSYDLTGLKPGTEYVVQIIGVKGGHISLPLSAIFTT
On to B10, for which, in test [1], the IC50 was 2.9 nM.

B11: P114AR7P92-F6 (designed binder, not shown: small tags and cut ends)
chain: LPAPKNLVVSRVTEDSARLSWTAPDAAFDSFWIRYFEFLGSGEAIVLTVPGSERSYDLTGLKPGTEYVVNILGVKGGGLSVPLSAIFTT
Consider B11, for which, in test [1], the 50% inhibitory concentration (IC50) is 2.2 nM.

B12: P114AR7P95-F10 (designed binder, not shown: small tags and cut ends)
chain: LPAPKNLVVSRVTEDSARLSWTAPDAAFDSFWIRYFEFTTAGEAIVLTVPGSERSYDLTGLKPGTEYVVNIMGVKGGSISPPLSAIFTT
As for B12, the half-maximal inhibitory concentration (IC50) in test [1] amounted to 1.4 nM.

B13: P114AR7P92-G8 (designed binder, not shown: small tags and cut ends)
chain: LPAPKNLVVSRVTEDSARLSWTAPDAAFDSFVIRYFEFLGSGEAIVLTVPGSERSYDLTGLKPGTEYVVQILGVKGGYISIPLSAIFTT
On to B13, for which, in test [1], the IC50 amounted to 1.6 nM.

B14: ECB38 (designed binder)
chain: MLPAPKNLVVSEVTEDSARLSWDDPWAFYESFLIQYQESEKVGEAIVLTVPGSERSYDLTGLKPGTEYTVSIYGVHNVYKDTNMRGLPLSAIFTTAPAPAPAPAPLPAPKNLVVSRVTEDSARLSWTAPDAAFDSFWIRYFEFLGSGEAIVLTVPGSERSYDLTGLKPGTEYVVNIMGVKGGKISPPLSAIFTTAPAPAPAPAPLAEAKVLANRELDKYGVSDYYKNLINNAKTVEGVKALLDEILAALP
As to B14, the “IC50, inhibition … (Tyr1173) in NCI-H292” value in test [2] is 2.3 nM. Also, the “IC50, inhibition … (Tyr1349) in NCI-H292” value in test [3] worked out at 1.3 nM.

B15: P54CR4-31 (designed binder, not shown: small tags and cut ends)
chain: LPAPKNLVVSEVTEDSLRLSWTAPDAAFDSFLIQYQESEKVGEAINLTVPGSERSYDLTGLKPGTEYTVSIYGVLGSYVFEHDVMLPLSAEFTT
As to B15, the EC50 in test [4] is more than 20000 nM.
